Measured values from article PMC3923439, “Anti-inflammatory properties of a novel peptide interleukin 1 receptor antagonist” (Journal of Neuroinflammation, 2014).
Values belong to the molecule of their own block, whether it stands above or below them. No end group written: not given here.

Experiments:
AMJ2-C8 macrophages = test: TNF-α secretion from IL-1β-activated macrophages (L929 bioassay); format: cell-based, mouse; details: 1.2 pM IL-1β, 24 hours; TNF-α by L929 survival with actinomycin D; hydrocortisone at 100 μM
Description: A murine alveolar macrophage cell line, AMJ2-C8 (American Type Culture Collection, Borås, Sweden), was routinely grown at 37°C with 5% CO2 in DMEM supplemented with 5% (vol/vol) FCS, 0.5% (v/v) 2-[4-(2-hydroxyethyl)piperazin-1-yl]ethanesulfonic acid (HEPES) (Gibco BRL), 2 mM GlutaMAX, 100 U/ml penicillin and 100 μg/ml streptomycin.
AMJ2-C8 macrophages were seeded into six-well multidishes at a density of 2.5 × 10^5 cells/well, and sIL-1RI, IL-1Ra or various concentrations of Ilantide were added to the cultures. Treatment with 100 μM hydrocortisone (Sigma-Aldrich, Brøndby, Denmark) was used as a positive control. After 10-minute incubation at 37°C, 1.2 pM IL-1β or IFN-γ (R&D Systems) was added to activate the macrophages. L929 cells were seeded onto a 96-well plate (Nunc, Roskilde, Denmark) at a density 0.2 × 10^2 cells/ml. Both cell cultures were incubated for 24 hours at 37°C. Conditioned medium from macrophages was collected and added to the L929 cell cultures together with actinomycin D (0.6 μg/well; Sigma-Aldrich). TNF-α is known to induce classic apoptosis in L929 cells in the presence of actinomycin D [12]. After 24-hour incubation at 37°C, 20 μl of 3-(4,5-dimethylthiazol-2-yl)-5-(3-carboxymethoxyphenyl)-2-(4-sulfophenyl)-2H-tetrazolium (Promega, Madison, WI, USA) were added to each well and incubated at 37°C in the dark for 45 minutes, then measured in an ELISA reader at 490 nm. To calculate the amount of TNF-α in the conditioned medium, fibroblasts were treated with standard concentrations of TNF-α (R&D Systems).

ectodomain of IL-1RI = target: T1, ectodomain of IL-1RI (Homo sapiens, UniProt P14778); test: Surface plasmon resonance binding of immobilized ligand to recombinant IL-1RI ectodomain; details: SPR, Biacore 2000, ligand immobilized on CM4 chip, IL-1RI ectodomain injected, 25°C
T1 construct: the recombinant ectodomain of IL-1RI (R&D Systems) was injected; purchased R&D Systems
T1 sequence (P14778 18-336 limits assumed): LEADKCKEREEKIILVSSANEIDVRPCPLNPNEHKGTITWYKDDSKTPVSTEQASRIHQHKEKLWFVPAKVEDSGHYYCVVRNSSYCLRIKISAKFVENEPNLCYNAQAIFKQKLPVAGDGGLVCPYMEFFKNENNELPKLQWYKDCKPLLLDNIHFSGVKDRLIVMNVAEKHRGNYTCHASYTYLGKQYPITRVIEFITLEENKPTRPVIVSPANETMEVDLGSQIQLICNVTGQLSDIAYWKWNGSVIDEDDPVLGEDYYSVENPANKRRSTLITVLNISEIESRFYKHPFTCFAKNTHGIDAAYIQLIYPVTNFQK
Description: (§1) The binding analysis was performed using a Biacore 2000 instrument (GE Healthcare Life Sciences) that contained 150 mM NaCl as running buffer at 25°C with 10 mM sodium phosphate (pH 7.4). The flow rate was 5 μl/min during immobilization. Ilantide peptide, IL-1β or IL-1Ra was immobilized on a CM4 sensor chip according to the manufacturer’s instructions, after which the recombinant ectodomain of IL-1RI (R&D Systems) was injected. The neural cell adhesion molecule (NCAM) immunoglobulin modules 1 and 2 (Ig1 and Ig2) were used as a negative control protein [9]. The data were analyzed using nonlinear curve-fitting with the manufacturer’s software.

[1] = tested on: Cerebellar granule neurons; test: Neurite outgrowth from cerebellar granule neurons; format: cell-based, rat; details: for Neurite outgrowth from CGNs: 7-day-old CGNs grown on fibroblast cells, 24 hours
Description: (§2) Cerebellar granule neurons (CGNs) were prepared from 7-day-old Wistar rats (from Charles River Laboratories, Sulzfeld, Germany; or from Hygind Møllegård Erik Møllegaard Hansen, Ejby, Denmark) as previously described. Briefly, the cerebella were cleared of meninges and blood vessels, roughly homogenized by chopping and trypsinized. The cells were washed in the presence of DNAse I and soybean trypsin inhibitor (Sigma-Aldrich, St Louis, MO, USA), and cellular debris was pelleted by centrifugation. The fibroblastoid mouse cell line L929 (LVN; European Collection of Cell Cultures, Porton Down, UK) was routinely grown at 37°C with 5% CO2 in DMEM supplemented with 10% (vol/vol) FCS, 2 mM GlutaMAX, 100 U/ml penicillin and 100 μg/ml streptomycin.
(§3) Cerebellar granule neurons were plated at a density of 1 × 10^5 cells/cm^2 on poly-L-lysine-coated, eight-well Permanox Lab-Tek chamber slides (Nunc) in Neurobasal-A medium supplemented with 2% (vol/vol) B27 (Gibco BRL), 0.5% (vol/vol) GlutaMAX, 100 U/ml penicillin and 100 μg/ml streptomycin. The CGN survival assay was performed as previously described. The neurite outgrowth assay was also performed as previously described.
Figure 6 Effect of Ilantide on neurite outgrowth from cerebellar granule neurons. Cerebellar granule neuron cultures were treated with interleukin 1 receptor antagonist (IL-1Ra) (A), soluble interleukin 1 receptor type I (sIL-1RI) (B), Ilantide-t (C) or IL-1β (D) for 24 hours. The cultures were fixed and immunostained with rabbit anti-rat growth-associated protein 43 (anti-GAP-43) primary antibodies and then with secondary Alexa Fluor 488 goat anti-rabbit antibodies. (E) Effect of IL-1β on neurite outgrowth induced by IL-1Ra. (F) Effect of IL-1β on neurite outgrowth induced by Ilantide-t. The results from three to four independent experiments are expressed as percentage ± SEM with untreated controls set at 100%, corresponding to an average neurite length of 19.3 ± 4.1 μm. *P < 0.05 and **P < 0.01 compared with untreated controls (A to D) or cultures treated with either IL-1Ra or Ilantide alone (E and F) by one-way analysis of variance followed by the Newman-Keuls post hoc test).

[2] = tested on: double-Ig module (Ig1-Ig2) of NCAM; test: Surface plasmon resonance, negative control protein; format: binding; details: SPR
Description: as §1

[3] = tested on: Cerebellar granule neurons; test: Survival of cerebellar granule neurons induced to undergo apoptosis by low potassium; format: cell-based, rat; details: 5 mM KCl, survival estimated 48 hours later
Description: as §2, §3
Figure 5 Effect of Ilantide and interleukin 1 receptor antagonist on survival of cerebellar granule neurons induced to undergo apoptosis. The neurons were allowed to differentiate for 7 days in a high-potassium (40 mM) medium before apoptosis was induced by changing to a low-potassium medium (5 mM). Survival was estimated 48 hours later. (A) The effect of insulin-like growth factor 1 (IGF-1), interleukin 1 receptor antagonist (IL-1Ra) and IL-1β on cerebellar granule neuron (CGN) apoptosis induced by 5 mM KCl. (B) The effect of Ilantide-m on CGN apoptosis induced by 5 mM KCl. […] The results from at least four independent experiments are expressed as mean ± SEM with untreated cultures induced to undergo apoptosis by 5 mM KCl set at 100%. *P < 0.05 and **P < 0.01 compared with untreated cultures induced to undergo apoptosis (one-way analysis of variance followed by Newman-Keuls post hoc test).

[4] = target: T2, recombinant ectodomain of IL-1 receptor type I (IL-1RI) (UniProt P14778 18-336); test: SPR; Biacore 2000; about 2,500 to 3,000 RU of Ilantide-t, IL-1β or IL-1Ra immobilised on a CM4 sensor chip; IL-1RI ectodomain (or NCAM Ig1-Ig2 as negative control) injected; 25°C, 10 mM sodium phosphate pH 7.4, 150 mM NaCl; apparent Kd; details: both partners purified
T2 construct: interleukin 1 receptor type I, ectodomain; No catalogue number, limits or tag are printed for the bought protein; also called sIL-1RI; soluble IL-1 receptor type I; source: bought: R&D Systems
T2 sequence (looked up): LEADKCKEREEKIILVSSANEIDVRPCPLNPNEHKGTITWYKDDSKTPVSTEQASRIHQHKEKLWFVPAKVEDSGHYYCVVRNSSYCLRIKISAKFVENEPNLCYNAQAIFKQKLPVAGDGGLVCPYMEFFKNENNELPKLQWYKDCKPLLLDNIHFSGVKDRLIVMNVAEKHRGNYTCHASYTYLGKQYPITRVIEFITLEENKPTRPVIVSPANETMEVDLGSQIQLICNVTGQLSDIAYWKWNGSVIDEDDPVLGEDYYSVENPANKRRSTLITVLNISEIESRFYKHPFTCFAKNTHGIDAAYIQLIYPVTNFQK

[5] = tested on: HEK-Blue IL-1β cells (IL-1RI / NF-κB); test: IL-1β-induced NF-κB activation, SEAP reporter; format: cell-based; details: 1.2 pM IL-1β, 24 hours, SEAP read at 600 nm, four independent experiments
Description: HEK-Blue IL-1β cells that contained an IL-1β-sensitive reporter (InvivoGen, San Diego, CA, USA) and HEK-Blue IL-6 cells that contained an IL-6-sensitive reporter (InvivoGen) were grown at 37°C with 5% CO2 in Dulbecco’s modified Eagle’s medium (DMEM) supplemented with 5% (vol/vol) fetal calf serum (FCS), 4.5 g/L glucose, 2 mM GlutaMAX medium, 100 U/ml penicillin, 100 μg/ml streptomycin (all obtained from Gibco BRL/Life Technologies, Taastrup, Denmark), 100 μg/ml zeocin, 200 μg/ml hygromycin and 100 μg/ml Normocin (all purchased from InvivoGen).
HEK-Blue IL-1β cells allow the monitoring of the activation of the NF-κB pathway specifically in response to IL-1β. They express a NF-κB-inducible secreted embryonic alkaline phosphatase (SEAP) reporter gene. The binding of IL-1β to its receptor IL-1RI on the surface of HEK-Blue IL-1β cells triggers a signaling cascade that leads to the activation NF-κB and the subsequent production of SEAP. HEK-Blue IL-1β cells were grown as described above. The cells were seeded onto a 96-well plate at a density 3.5 × 10^5 cells/ml. For the NF-κB activation assay, the cells were treated with 1.2 pM IL-1β alone or together with sIL-1RI, IL-1Ra or various concentrations of Ilantide. After 24 hours of incubation at 37°C, 150 μl of the cell supernatants were added to each well of a 96-well plate together with 50 μl of QUANTI-Blue (InvivoGen), incubated at 37°C for 40 minutes and measured in an enzyme-linked immunosorbent assay (ELISA) reader at 600 nm to determine the expression levels of reporter genes activated by NF-κB.

Molecule: C[C@]12CCC(=O)C=C1CC[C@@H]1[C@@H]2[C@@H](O)C[C@@]2(C)[C@H]1CC[C@]2(O)C(=O)CO [hydrocortisone, reference compound]
- Inhibition of IL-1β-induced TNF-α secretion in macrophages (AMJ2-C8 macrophages): completely inhibited

- k a (ectodomain of IL-1RI; 10 mM sodium phosphate pH 7.4, 150 mM NaCl): 8.56 ± 2.79 × 10^5 M^-1 s^-1
- k d (ectodomain of IL-1RI; pH 7.4): 7.53 ± 2.03 × 10^-4 s^-1
- Binding to double-Ig module of NCAM (negative control) [2]: no significant binding
Molecule: IL-1β: recombinant interleukin 1β
- Neurite outgrowth from CGNs [1]: did not have neuritogenic effects
- Effect on the neuritogenic effect of both IL-1Ra and Ilantide-t ([1]; IL-1β at 1.5 nM and 7.5 nM): significantly inhibited

Molecule: IGF-1: insulin-like growth factor 1, positive control [reference compound]
- CGN survival after potassium withdrawal [3]: inhibited

- Kd [4]: 0.0275 µM
- koff [4]: 0.00269 s⁻¹
- kon [4]: 184000 M⁻¹ s⁻¹
B1: Ilantide-t (peptide)
peptide: SGRKSSKMQA
modifications: also: dendrimer of four monomers coupled to a lysine backbone
notes: ten residues from the N terminus of human IL-1 receptor antagonist (IL-1Ra); Four copies of the peptide on a lysine backbone; also called IL-1 antagonistic peptide (dendrimer form); source: synthetic peptide; bought: Schafer-N; further purified by gel filtration (Sephadex G-10)

B2: sIL-1RI: soluble IL-1 receptor type I (recombinant ectodomain of IL-1RI) (protein)
chain: LEADKCKEREEKIILVSSANEIDVRPCPLNPNEHKGTITWYKDDSKTPVSTEQASRIHQHKEKLWFVPAKVEDSGHYYCVVRNSSYCLRIKISAKFVENEPNLCYNAQAIFKQKLPVAGDGGLVCPYMEFFKNENNELPKLQWYKDCKPLLLDNIHFSGVKDRLIVMNVAEKHRGNYTCHASYTYLGKQYPITRVIEFITLEENKPTRPVIVSPANETMEVDLGSQIQLICNVTGQLSDIAYWKWNGSVIDEDDPVLGEDYYSVENPANKRRSTLITVLNISEIESRFYKHPFTCFAKNTHGIDAAYIQLIYPVTNFQK
- Inhibition of IL-1β-induced TNF-α secretion in macrophages (AMJ2-C8 macrophages): significantly inhibited
- Neurite outgrowth from CGNs [1]: significantly induced neurite outgrowth
- Inhibition of NF-κB activation induced by IL-1β [5]: dose-dependently inhibited
